B1: NP_015628.1 (parent)
chain: EQRNSRWNTVLRAVKAKTHHLEP
B2: MLH1 (parent)
chain: YNIATRRKALKNPSEEYGKILEVV

Variants of: B1
Test: protein stability index of a GFP-peptide fusion (GPS, HEK-293T) (PSI 1-6); higher = more stable
Details: c terminus: native

| Variant | protein stability index |
| --- | --- |
| N8H | 2.64 |
| N8F | 2.8 |
| N8E | 1.92 |
| N8P | 3.65 |
| N8M | 2.15 |
| N8T | 2.16 |
| N8R | 2.53 |
| N8W | 2.78 |
| N8A | 1.94 |
| N8Q | 2.06 |
| N8L | 2.29 |
| N8D | 2.52 |
| N8S | 2.28 |
| N8V | 3 |
| N8Y | 2.61 |
| N8C | 2.01 |
| N8I | 2.6 |
| N8G | 2.49 |
| W7G | 5.71 |
| W7N | 4.83 |
| W7R | 5.19 |
| W7M | 5.33 |
| W7S | 5.32 |
| W7F | 4.71 |
| W7C | 5.2 |

| Variant | protein stability index |
| --- | --- |
| W7T | 5.14 |
| W7V | 4.88 |
| W7A | 5.18 |
| W7L | 4.66 |
| W7K | 5.46 |
| W7H | 5.21 |
| W7D | 5.12 |
| Q2D | 3.43 |
| Q2L | 2.84 |
| Q2V | 2.76 |
| Q2N | 2.88 |
| Q2F | 3.02 |
| Q2T | 2.38 |
| Q2E | 3.55 |
| Q2R | 2.9 |
| Q2M | 3.12 |
| Q2K | 2.71 |
| Q2G | 2.74 |
| Q2W | 2.78 |
| Q2P | 3.06 |
| Q2C | 2.93 |
| Q2H | 3.12 |
| Q2I | 3.24 |
| Q2S | 2.87 |
| Q2A | 2.98 |

| Variant | protein stability index |
| --- | --- |
| Q2Y | 2.97 |
| E1A | 2.66 |
| E1P | 2.74 |
| E1K | 2.12 |
| E1N | 2.91 |
| E1W | 2.94 |
| E1C | 2.79 |
| E1M | 2.95 |
| E1H | 2.91 |
| E1R | 3.15 |
| E1Q | 3.13 |
| E1I | 2.79 |
| E1Y | 3.33 |
| E1T | 2.27 |
| E1F | 2.52 |
| E1V | 2.65 |
| E1G | 2.9 |
| E1L | 2.87 |
| E1S | 2.4 |
| R3A | 3.25 |
| R3C | 3.3 |
| R3G | 3.58 |
| R3Q | 2.71 |
| R3W | 2.7 |
| R3M | 3.25 |

| Variant | protein stability index |
| --- | --- |
| R3H | 2.99 |
| R3Y | 3.7 |
| R3L | 3.23 |
| R3D | 3.97 |
| R3F | 3.35 |
| R3E | 3.33 |
| R3T | 2.9 |
| R3V | 2.99 |
| R3I | 3.09 |
| R3N | 3.07 |
| R3S | 3.47 |
| R3P | 3.25 |
| R3K | 2.79 |
| N4D | 3.22 |
| N4M | 2.94 |
| N4L | 2.87 |
| N4Q | 3.1 |
| N4S | 3.05 |
| N4K | 2.67 |
| N4Y | 3.16 |
| N4T | 3.23 |
| N4R | 2.96 |
| N4G | 3.71 |
| N4A | 2.5 |
| N4H | 2.48 |

| Variant | protein stability index |
| --- | --- |
| N4C | 2.73 |
| N4F | 3.17 |
| N4W | 2.4 |
| N4V | 2.96 |
| N4P | 2.67 |
| N4E | 3.37 |
| N4I | 2.94 |
| T9G | 3.94 |
| T9F | 1.99 |
| T9C | 3 |
| T9E | 2.38 |
| T9A | 3.31 |
| T9H | 2.38 |
| T9D | 2.29 |
| S5C | 2.46 |
| S5R | 2.42 |
| S5D | 2.96 |
| S5H | 2.62 |
| S5T | 2.93 |
| S5G | 3.32 |
| S5V | 2.43 |
| S5L | 2.48 |
| S5W | 2.46 |
| S5F | 2.61 |
| S5A | 2.67 |

| Variant | protein stability index |
| --- | --- |
| S5Y | 2.38 |
| S5K | 2.28 |
| S5P | 2.78 |
| S5E | 2.91 |
| S5M | 2.4 |
| S5Q | 2.67 |
| R6S | 2.4 |
| R6Y | 2.94 |
| R6Q | 2.62 |
| R6E | 3.39 |
| R6W | 2.07 |
| R6K | 2.67 |
| R6V | 3.23 |
| R6P | 2.51 |
| R6M | 2.72 |
| R6C | 2.45 |
| R6L | 2.97 |
| R6A | 2.85 |
| R6D | 2.7 |
| R6H | 3.45 |
| R6F | 3.03 |
| R6G | 3.11 |
| R6I | 3.4 |
| R6T | 2.48 |
| R6N | 2.67 |

Variants of: B2
Test: as above
Details: c terminus: a fixed tail appended

| Variant | protein stability index |
| --- | --- |
| V24F | 2.98 |
| V24E | 3.98 |
| V24N | 3.64 |
| V24W | 1.96 |
| V24H | 3.11 |
| V24C | 3.37 |
| V24Q | 3.52 |
| V24L | 2.45 |
| V24K | 3.77 |
| V24D | 3.66 |
| V24G | 3.32 |
| V24P | 4.07 |
| V24A | 3.79 |
| P13K | 3.19 |
| P13T | 2.89 |
| P13F | 1.96 |
| P13W | 2.66 |
| P13M | 2.27 |
| P13N | 2.99 |
| P13Y | 2.59 |
| P13S | 3.05 |
| P13R | 2.78 |
| P13I | 2.15 |

| Variant | protein stability index |
| --- | --- |
| P13C | 3.26 |
| P13H | 2.94 |
| E15R | 2.46 |
| E15M | 2.54 |
| E15F | 2.29 |
| E15K | 2.06 |
| E15L | 1.99 |
| E15V | 1.85 |
| E15N | 2.43 |
| E15Y | 2 |
| E15W | 1.78 |
| E15S | 2.49 |
| E15I | 2.46 |
| E15G | 1.76 |
| E15H | 2.43 |
| E15A | 2.1 |
| E15C | 2.17 |
| E15Q | 2.15 |
| E15P | 2.21 |
| E15D | 2.7 |
| E16Y | 1.88 |
| E16R | 2.5 |
| E16D | 2.75 |

| Variant | protein stability index |
| --- | --- |
| E16L | 1.99 |
| E16S | 2.71 |
| E16K | 2.1 |
| E16M | 2.15 |
| E16C | 1.85 |
| E16F | 1.62 |
| E16G | 2.89 |
| E16V | 2.49 |
| E16P | 2.17 |
| E16A | 2.37 |
| V23A | 3.69 |
| V23R | 3.22 |
| V23K | 3.36 |
| V23H | 3.69 |
| V23I | 2.5 |
| V23T | 2.97 |
| V23F | 2.1 |
| V23Y | 2.5 |
| V23E | 4.21 |
| V23P | 3.41 |
| V23Q | 3.34 |
| V23D | 3.65 |
| V23C | 3.03 |

| Variant | protein stability index |
| --- | --- |
| V23N | 3.43 |
| V23S | 3.66 |
| V23G | 3.62 |
| S14Q | 2.79 |
| S14E | 3.56 |
| S14R | 2.94 |
| S14W | 1.43 |
| S14A | 2.98 |
| S14F | 2.01 |
| S14N | 2.71 |
| S14L | 1.78 |
| S14T | 2.85 |
| S14D | 2.98 |
| Y17V | 3.16 |
| Y17A | 3.52 |
| Y17K | 3.37 |
| Y17I | 2.95 |
| Y17W | 2.66 |
| Y17D | 4.3 |
| Y17L | 2.63 |
| Y17N | 4.08 |
| Y17Q | 3.97 |
| Y17R | 3.57 |

| Variant | protein stability index |
| --- | --- |
| Y17T | 3.72 |
| Y17E | 4.04 |
| Y17C | 3.05 |
| Y17P | 4.17 |
| Y17M | 3.11 |
| Y17S | 3.75 |
| Y17H | 3.53 |
| G18P | 3.03 |
| G18I | 2.16 |
| G18V | 1.95 |
| G18E | 3.29 |
| G18L | 2.15 |
| G18Y | 2.34 |
| G18N | 3.13 |
| G18C | 2.5 |
| G18F | 2.16 |
| G18Q | 2.7 |
| G18T | 2.19 |
| G18D | 3.15 |
| G18A | 2.21 |
| G18W | 1.46 |
| G18R | 2.4 |
| G18K | 2.97 |

| Variant | protein stability index |
| --- | --- |
| K11W | 2.19 |
| K11V | 2.53 |
| L21A | 3.69 |
| L21H | 3.61 |
| L21G | 3.52 |
| L21D | 4.42 |
| L21Q | 3.8 |
| L21I | 2.17 |
| L21S | 3.76 |
| L21V | 3.34 |
| L21Y | 2.46 |
| L21T | 3.91 |
| L21W | 2.34 |
| L21N | 4.33 |
| L21C | 4.26 |
| L21E | 4.02 |
| I20W | 2.82 |
| I20Y | 3.18 |
| I20T | 3.62 |
| I20A | 3.46 |
| I20Q | 3.8 |
| I20M | 3.13 |
| I20P | 3.3 |

| Variant | protein stability index |
| --- | --- |
| I20E | 3.54 |
| I20G | 3.52 |
| I20S | 4.11 |
| I20R | 3.6 |
| I20V | 4.05 |
| I20C | 3.89 |
| I20F | 2.39 |
| I20N | 3.54 |
| I20H | 3.59 |
| I20D | 4.34 |
| N12Y | 2.53 |
| N12G | 2.71 |
| N12A | 2.55 |
| N12H | 2.74 |
| N12R | 3.3 |
| N12D | 3.32 |
| N12E | 3.35 |
| N12W | 1.94 |
| N12S | 2.76 |
| N12F | 1.97 |
| N12P | 3.11 |
| N12V | 1.98 |
| E22Q | 2.42 |

| Variant | protein stability index |
| --- | --- |
| E22F | 2.32 |
| E22V | 3.63 |
| E22C | 1.75 |
| E22L | 2.54 |
| E22M | 2.09 |
| E22D | 3.33 |
| E22T | 2.19 |
| E22A | 2.59 |
| E22K | 2.18 |
| E22H | 2.43 |
| E22P | 2.49 |
| E22Y | 2.27 |
| E22G | 2.42 |
| K19V | 1.74 |
| K19L | 1.63 |
| K19E | 3.37 |
| K19W | 1.65 |
| K19H | 2.42 |
| K19A | 2.5 |
| K19M | 2.51 |
| K19I | 1.8 |
| K19C | 1.8 |
| K19N | 3.29 |
